The DeepSol protein solubility set

Assay: soluble on expression in E. coli; label from the status in PepcDB or PDB records

Row | Sequence | soluble on expression in E. coli
1 | MSTTPGTPHGVTHSLMEQGWYWADADRSAVSKALSDQPDGSFIVRNASTPGDYTLSVKFAAQVKLLRIVVKDGKCGFNTDSLTHDSVVRLIEFHRNISLNIFNDALDVRLLYPVSVRRNSQNGKPFFKKGQLQQRMILSAKNDHDWRERLEMENLRAVHLAFERGAKLYDSAHQEMERAESLYHALNQSVRDNEIKLGKLNNLLEAETDVVTQIQGSQTTSEMLKGAFANNKTFVEESIRRINTELTSSKDKKKTLSGILDEIAMKRSNSKTRLCKLMELRSAVYDKMEPALCSRMAAMLDAGAEMINSEPTKVTQLLVDMELKWTPAQYLMCGTSKENAANALIHARYRIAQLDKAVGLKREPQDGIFLIRGSSSHGDKLVLSVLHGERVSHCLIEQNEEGWGFEHSNVYLTTISDFVRYYSHFSLETHADAIKTPLRTPAFDAVTSDTSKPLRNGPGQVFTALPISRKYMEKALLTDDPTKPPESPEPRPDSWDSPSPDTPSSSDSRLVHPTTLPKSIPE | not soluble
2 | MSTVPISGRSQIMLVQDSEILSSSALQYKQFLSKVKISKNATSTAQVRRVGQKVAAATMLYLKQNGLGDMASQMKWEFNVVEDKAVNAFCMPGGKIVVYTGLLKLVGSDAELATVISHEVSHAVARHSNERISQEYLRQMGGNILGAAVSNKSAALQTVIGQAYGIGSQVLITLPYNRKQEYEADKIGLVFMAMAGYNPNAAITFWQKMAAQGNGRVEFLSTHPSDANRIAAIRQYMPEAMKHYKSKLEHHHHHH | soluble
3 | MSTVRSIYYRGSLEHCNYTCSYCPFGRKSVSADTTEDQEALDRFISRIGGWKYGSLRILIIPYGEAMIHRYYREGIMRLAAMPHVIGVSCQTNLSFSVSRFLDEAEAEQADVSKFRFWASYHPEMVGVGEFASKVEMLRAAGIGVCAGAVGDPSAKEQIRKLRQLLDPSVYLFVNAMQGLRKPLSEEDIRFFGEIDNLFDYDRRNAKACLDGCVGGRETLFIDRKGDMYACPRSGIRMGNFYDDSTSDFQPFCLRKVCDCYIAFSNLCDTPLRRMMGDGALWRIPERKKVEAVFFDVDGTLTDAQGRIPDRTVSVLEYMAKRLPLYLSTALPVSHAKKRLGNVFGLFSGGVFADGGLLCYGETIECVPIANPMTAGFPGCRVTRYTREGKVFKYAVLAPNTREAVRWLTELDEEAYQLYQEGRLLTVVDSKASKKNGLITLCARLGISLREVLVVGNTMHDWPMMSVAGYSCAVMDAEEKLRKLSGYVLNPDSIPVFFDILEHHHHHH | not soluble
4 | MSVIIVGGGMAGATLALAISQFSHGTLPVHLIEAKAPEADGHPGFDARAIALAAGTCQQLARIGVWLAISDCATAINTVHVSDRGHAGFVTLDAQDYSLAALGHVAELHDIGLRLFALLRKAPGVTLHCPERVASVSRTQQQVNVTLENGNVIAGSVLVAANGTHSALASACGVDWHQEPYEQLAVIANVATAIPHQGRAFERFTPNGPLAMLPMSHGRCSLVWCHPLDQRDEVLSWSDAQFCHALQAAFGWRLGRITQAGKRSAYPLALTTAAKVFTHRTVVVGNAAQTLHPIAGQGFNLGLRDVMSLAETLVAAQDAGEDIGAWHVLSRYQQRRQVDRDTTIGVTNGLVHLFANRWAPLVIGRNIGLMAMELLPPARDALAQRTLGWVARLEHHHHHH | soluble
5 | MSVIRLHQYQVVGRALPTEKDEQPKIYRMKLWATNEVLAKSKFWYYLRRQKKVKKSNGQMLAINEIFEKNPTTIKNFGIWLRYQSRTGYHNMYKEYRDTTLNGAVEQMYTEMASRHRVRFPCIQIIKTATVPASLCKRESTKQFHNSKIKFPLVFRKVRPPTRKLKTTFKANKPNLFM | soluble
6 | MSVKKLENGQYQVDVSFGFDPITGERIRTRPVASTRKEALELEAKLRREFQEERARKSRSVSFPTLISIYLASCEIDSKPNYYQNQKYIINKHISDYFLKSDIQKITHREITDFRKHLMETGLSNKSVNNIMTSLSKIFDTAVHEEILKRNPCDNVKRLPLTRKKMKFWRPEEFKKFISLIPQDQLLFKTFYTVAFLTGLRCGEMLALQWKDIDKILLEIDVHKSCTWLDGQFVVTTPKTKNSIRRVSINKKLLKLLERWKEAQEELFNELGIRHSHDTYIFQYKDTPSRKDIFSRKIKYFCKDSDLTPIRLHDFRHSHVALLIHQGEDYITIKERLGHGSVKTTIDVYGHLYPNKQKEMADKLDDLL | not soluble
7 | MSVKSDSRHLYLRVIDHIKEKIKDGAYKERQKLPSEFDLAKELGVSRATLREALRILEEENVVIRRHGVGTFVNAKPLFSSGIEQLSSITDMISSVGKTPGTIFLSSSTTSLTEEEKEKFNSEDGFNAVMIERVRTADGEPVVYCIDKLAKEILPDLSGYNEESLLTVIHNNTHKRITYAVAHIEPIGYHPKISPILECEPETALLVLKQMHYDQNDEPILYSINYFRADKFSFHVLRKRM | not soluble
8 | MSVNVRPVKRFVEEQKKKNPEIKLSEKATQLLTDMPKMDSPEKLFNLEDKIATEMGSDRIFEEFLQDYAFLRNAVEEYLDGKPTSSDTISKIARLRRNTRLTHYGTALMRKEVAERMENVDAKLLQLQNVTSEVQHIQKEIDRCLDFSAGDEELELVPFEQFHTEASEILANETADNEHEQYLARLKFENEQRRELLSTLNELEGRRNVLQSDIRGKEVRLQGLKPKLEDLTKVAEPVFEMVGAKFKDLSIEGEQRKLSLQLPAPLAVAHIHAAAYKEIHDGEYSKILRNFLYKYKLFEFRILGTNDTEKQSKDETEAMKRKRKEDETTQEKINKMASELLEVHPMSLEFEIECSENIKISMQIQYLTELKVTTAKWHINTDSKLKKSPFFSIDSLMSDLFENDTGDKCPNDVGEMKIEHLKMNFNSSAKQIGKPFKFIQEISGSEGETDRIGATEHLRKVITTIRTRISNRAVLDGIIRDLESKKTDDLNLEPEVKINSFKICDDESFIASIPTSLTKKISNSAATDRFSYKIEASDGNGRKLTAYISIPADYPRHTALFGIAAPEDSESSTEVARQIEDRLNTEAHYVDDVKSIKEQLSLLLKHIDLS | not soluble
9 | MSVPPGSIIVSDWHRCPDSREFFSKILHKKRRRKFGKTGVGKSALAARLAGLDLPKMHYETTGIETTVVFWPVRLKESGRVLFFRFELWDCGESAMRRFDHMLLSCKEKVDAILFLFSFTDRGSFDDLTNQISRITEPSDRVVKLVVGTKRDGERRDTFSGGVGSSGFPCGR | not soluble
10 | MSVPSSLSQSAINANSHGGPALSLPLPLHAAHNQLLNAKLQATAVGPKDLRSAMGEGGGPEPGPANAKWLKEGQNQLRRAATAHRDQNRNVTLTLAEEASQEPEMAPLGPKGLIHLYSELELSAHNAANRGLRGPGLIISTQEQGPDEGEEKAAGEAEEEEEDDDDEEEEEDLSSPPGLPEPLESVEAPPRPQALTDGPREHSKSASLLFGMRNSAASDEDSSWATLSQGSPSYGSPEDTDSFWNPNAFETDSDLPAGWMRVQDTSGTYYWHIPTGTTQWEPPGRASPSQGSSPQEESQLTWTGFAHGEGFEDGEFWKDEPSDEAPMELGLKEPEEGTLTFPAQSLSPEPLPQEEEKLPPRNTNPGIKCFAVRSLGWVEMTEEELAPGRSSVAVNNCIRQLSYHKNNLHDPMSGGWGEGKDLLLQLEDETLKLVEPQSQALLHAQPIISIRVWGVGRDSGRDFAYVARDKLTQMLKCHVFRCEAPAKNIATSLHEICSKIMAERRNARCLVNGLSLDHSKLVDVPFQVEFPAPKNELVQKFQVYYLGNVPVAKPVGVDVINGALESVLSSSSREQWTPSHVSVAPATLTILHQQTEAVLGECRVRFLSFLAVGRDVHTFAFIMAAGPASFCCHMFWCEPNAASLSEAVQAACMLRYQKCLDARSQASTSCLPAPPAESVARRVGWTVRRGVQSLWGSLKPKRLGAHTP | soluble
11 | MSVQDTKAVEFSMGHIRSSSVSLVAEATSNTNSEDKLSKVQLYEDLCRYEDTLSKLVESVDRFKPNLDIAKDLIRTDEALFENVKLLAEYDNIYRNLQKIDKDSEELDSKTRKILEILNECHDELKALPMLEQVEFEKNTILQQRSKINSTELLDYATKLSKFTKIPPTFDKGAVGPNNFIWPAEDALRRGMLAMASLHSKELTRIPGEEVEETEVPTVPPSQSEEQKGQMAKKEGTPKTDSFIFDGTAKEVGDEADNTKDKEKEENNDDALDLDLDLFDPDDF | soluble
12 | MSVSARSAAAEERSVNCGTMAQPKNLEGYVGFANLPNQVYRKSVKRGFEFTLMVVGESGLGKSTLINSLFLTDLYSPEYPGPSHRIKKTVQVEQSKVLIKEGGVQLLLTIVDTPGFGDAVDNSNCWQPVIDYIDSKFEDYLNAESRVNRRQMPDNRVQCCLYFIAPSGHGLKPLDIEFMKRLHEKVNIIPLIAKADTLTPEECQQFKKQIMKEIQEHKIKIYEFPETDDEEENKLVKKIKDRLPLAVVGSNTIIEVNGKRVRGRQYPWGVAEVENGEHCDFTILRNMLIRTHMQDLKDVTNNVHYENYRSRKLAAVTYNGVDNNKNKGQLTKSPLAQMEEERREHVAKMKKMEMEMEQVFEMKVKEKVQKLKDSEAELQRRHEQMKKNLEAQHKELEEKRRQFEEEKANWEAQQRILEQQNSSRTLEKNKKKGKIF | not soluble
13 | MSVSHAQLKAFHAVAVYGSFTRAAERLFLTQPAVSDQVRKLEERYGVLLFHRNKRSVRLSELGERLLAVTQRLFAIEAEAEELLSASSALQTGTLTLAVDAPVHVLPQIARFCERYPGIAVRVETGNTDESLQRLFSYQADLALLGRDVSDERLLSLTLRNDPIVAFVSLSHPWAGRESIRLADLDDMPLVLREQGSVTRQTLEEEMSRAGLRICPAIQVEGREASREAVVAGIGVGVVSAAEFGADTRVHALPIVDCQRRLTETLVCLREQRSRRIVETFLDLVGEDLPAPS | not soluble
14 | MSVTMSEAFDYSMIDNILSEHGTSETAIIAILQSIQEEYHYIPKEVFPYLSKKLKVSEARIFSVATFYENFSLEPKGKYIIKVCDGTACHVRKSIPIIERLRKELGLSGTKPTTDDLMFTVETVSCLGACGLAPVITVNDKVYAEMTPDKASELIKQLREGDADA | not soluble
15 | MSWTGRLQCTAAFRNGRTVILDSYNEGALKLMRPVYLNSTYPTLYLVHVGGGYVDGDSYDMEISLEPSARLMVTTQSAAKIYKTPSTPVRQYTRFSLGEQSVLEYFPDPTIAYEHARFVQETTVYITSSSTVVYGEIITPGWSESGELFRYDWIRSKLKVYQDEALVLFDHLYLDSRQHLTSMLQLGGYTHVGSLVALSPFITKEVLERFNQFMEEMPQEVRCGFSAAAVPGFSVRILAYETSAIEAIFQRVQQFIRQQCGEKTPVCWRKY | not soluble
16 | MSYFSHQDPNNPESHINFTMAQMEIQRWTLLISNPEADASTLVMELKTVTGESKHFINQAINAMWALMKLPILRVVVETHFHVRIPYLARIMQAVKQAKPELWDELDHRIAEKLTPRIAGQALMEASALAGLITRWIKELDPTFTGKKRGPKGSDGTLTFRHVDGRTYISGNIDGVTGKLFQKALEKVKQKGEDLARALVTFLAGRTKVKIVSAVYTPLVGGVSWIPGVGFLSQEESRKLGKTASKVIDLDTIATRVENGYTPSPELRLYVMGRDGTCRHPGCTVSADNCQIDHVIPFGEGGLTVAWNLQCLCAHHHNMKTDGRIQAAIDSMGRVAWIGPCNRTVVTEPVGPLAQEMPTGQWGQTLEARMEKTFEKLRSSLEVLDDLEHHHHHH | soluble
17 | MSYLRALFFVLAMLATFGSMAGEPAHSDSGRDQVIRQILSDFWGNAKDVHGNAIQPASQEDRATVPISRAAAYRALEAGNLSGLAEWCGLDWEQHYLGLTEEARKMGMLDKQVAFFSVLHGAGQGAMVGSRSGQTCTAKQRTRIETLLLESQKEGLPSDALNGWQ | not soluble
18 | MSYRESRQRLERLTESPSHLTIWRRMQELSYESKFEYESFVSADGTKLHAKRSKKLDVKVIAGKSVIVGINESHREMRGEYDVKATVVGDADRDLSCF | not soluble
19 | MSYSSQGVVEKGKVMPGDVLATIEEFLPGEGVYVDPVKGFIRAAAPGVAYLDMSRRIAYVKPHKKPQTPGPGSEVAALVTGVRGDLVVAEVYGVVRLSPKPAWLYELPSPYSAAIPISQIADEYIKNIEDYYRMGDWILAKIVSRTPPFTLSTVEPRYGVVYAICSRCGAVMEFQSERSMKCPKCGNVEKRKVSIHAKSRHLRIRLVRNLVIYRS | soluble
